Results reported in publication PMC2132719.

Target: NLS-HSA (SV-40 large T antigen NLS peptide coupled to human serum albumin) (human | SV-40) (UniProt P02768)
Assay: pull-down

Xenopus Nup62 (natural protein)
percent of the protein in the extract bound: < 1%
